The values that follow come from patent US20030017160.

Data set [1] deals with 6his-Cdc2, P06493.
Data set [2] has as its target T1, GST-Cdc25C, P30307.
T1 chain: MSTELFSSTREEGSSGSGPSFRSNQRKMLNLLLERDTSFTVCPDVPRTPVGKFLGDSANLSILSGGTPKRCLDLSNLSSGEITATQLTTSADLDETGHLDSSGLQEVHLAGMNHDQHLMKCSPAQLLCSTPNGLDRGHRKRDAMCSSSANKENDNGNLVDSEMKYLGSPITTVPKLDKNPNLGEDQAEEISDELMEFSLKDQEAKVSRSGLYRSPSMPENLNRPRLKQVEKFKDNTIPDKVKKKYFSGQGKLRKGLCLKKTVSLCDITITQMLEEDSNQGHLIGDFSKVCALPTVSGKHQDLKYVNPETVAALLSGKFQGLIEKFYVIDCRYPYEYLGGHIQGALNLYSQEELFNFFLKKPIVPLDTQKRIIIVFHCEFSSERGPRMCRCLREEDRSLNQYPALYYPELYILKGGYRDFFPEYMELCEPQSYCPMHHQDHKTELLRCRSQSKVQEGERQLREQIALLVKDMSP

Sequence of 6his-Cdc2, P06493 (P06493 whole entry, looked up): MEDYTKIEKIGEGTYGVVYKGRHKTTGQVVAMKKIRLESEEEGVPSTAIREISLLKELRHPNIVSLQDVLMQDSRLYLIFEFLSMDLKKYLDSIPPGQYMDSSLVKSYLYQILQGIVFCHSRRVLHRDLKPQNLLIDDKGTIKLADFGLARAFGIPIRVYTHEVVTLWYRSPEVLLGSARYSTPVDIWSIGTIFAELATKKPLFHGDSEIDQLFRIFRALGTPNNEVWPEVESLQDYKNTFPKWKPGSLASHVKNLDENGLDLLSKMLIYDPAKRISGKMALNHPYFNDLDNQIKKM

B1: GST-Cdc25C (protein)
chain: MSTELFSSTREEGSSGSGPSFRSNQRKMLNLLLERDTSFTVCPDVPRTPVGKFLGDSANLSILSGGTPKRCLDLSNLSSGEITATQLTTSADLDETGHLDSSGLQEVHLAGMNHDQHLMKCSPAQLLCSTPNGLDRGHRKRDAMCSSSANKENDNGNLVDSEMKYLGSPITTVPKLDKNPNLGEDQAEEISDELMEFSLKDQEAKVSRSGLYRSPSMPENLNRPRLKQVEKFKDNTIPDKVKKKYFSGQGKLRKGLCLKKTVSLCDITITQMLEEDSNQGHLIGDFSKVCALPTVSGKHQDLKYVNPETVAALLSGKFQGLIEKFYVIDCRYPYEYLGGHIQGALNLYSQEELFNFFLKKPIVPLDTQKRIIIVFHCEFSSERGPRMCRCLREEDRSLNQYPALYYPELYILKGGYRDFFPEYMELCEPQSYCPMHHQDHKTELLRCRSQSKVQEGERQLREQIALLVKDMSP
As for B1, the “Cdc2 dephosphorylation by gel-mobility analysis” value in data set [1] is “GST-Cdc25 catalyses a reduction in the slower migrating phosphorylated forms of Cdc2”.

B2: 6his-Chk1 (protein)
chain: MAVPFVEDWDLVQTLGEGAYGEVQLAVNRVTEEAVAVKIVDMKRAVDCPENIKKEICINKMLNHENVVKFYGHRREGNIQYLFLEYCSGGELFDRIEPDIGMPEPDAQRFFHQLMAGVVYLHGIGITHRDIKPENLLLDERDNLKISDFGLATVFRYNNRERLLNKMCGTLPYVAPELLKRREFHAEPVDVWSCGIVLTAMLAGELPWDQPSDSCQEYSDWKEKKTYLNPWKKIDSAPLALLHKILVENPSARITIPDIKKDRWYNKPLKKGAKRPRVTSGGVSESPSGFSKHIQSNLDFSPVNSASSEENVKYSSSQPEPRTGLSLWDTSPSYIDKLVQGISFSQPTCPDHMLLNSQLLGTPGSSQNPWQRLVKRMTRFFTKLDADKSYQCLKETCEKLGYQWKKSCMNQVTISTTDRRNNKLIFKVNLLEMDDKILVDFRLSKGDGLEFKRHFLKIKGKLIDIVSSQKIWLPAT
On to B2, for which, in data set [2], the “GST-Cdc25 phosphatase activity (loss of the slower migrating phosphorylated forms of Cdc2 on gel)” value is “Prior phosphorylation of GST-Cdc25 by 6his-Chk1 leads to a dose-dependent reduction in GST-Cdc25 activity”; the “phosphorylation with gamma-32P ATP, SDS-PAGE and autoradiography” value was “GST-Cdc25 was phosphorylated by 6his-Chk1 and by 6his-hCDS1”.
